Test results: patent US20030119733A1, “Compositions and methods for inhibiting hepatocyte invasion by malarial sporozoites” (New York University, priority 1992, published 2003)

B1: Falciparum-2: fragment of P. falciparum CS protein with repeats and Region II+ (residues 43-391) (protein)
chain: AGTNLYNELEMNYYGKQENWYSLKKNSRSLGENDDGNNNNGDNGREGKDEDKRDGNNEDNEKLRKPKHKKLKQPGDGNPDPNANPNVDPNANPNVDPNANPNVDPNANPNANPNANPNANPNANPNANPNANPNANPNANPNANPNANPNANPNANPNANPNANPNVDPNANPNANPNANPNANPNANPNANPNANPNANPNANPNANPNANPNANPNANPNANPNANPNANPNANPNANPNANPNKNNQGNGQGHNMPNDPNRNVDENANANNAVKNNNNEEPSDKHIEQYLKKIKNSISTEWSPCSVTCGNGIQVRIKPGSANKPKDELDYENDIEKKICKMEKCSS
B2: Falciparum-1: Same as Falciparum-2 minus most of Region II+ (P. falciparum residues 43-348) (protein)
chain: AGTNLYNELEMNYYGKQENWYSLKKNSRSLGENDDGNNNNGDNGREGKDEDKRDGNNEDNEKLRKPKHKKLKQPGDGNPDPNANPNVDPNANPNVDPNANPNVDPNANPNANPNANPNANPNANPNANPNANPNANPNANPNANPNANPNANPNANPNANPNANPNVDPNANPNANPNANPNANPNANPNANPNANPNANPNANPNANPNANPNANPNANPNANPNANPNANPNANPNANPNANPNKNNQGNGQGHNMPNDPNRNVDENANANNAVKNNNNEEPSDKHIEQYLKKIKNSISTEWSP

How the values were obtained:
[1] = Solid phase binding assay, analogues of sulfatide and cholesterol-3-sulfate; settings: dried into microtiter wells
Procedure: Solid phase binding assays: Thirty μl of lipids or steroids dissolved in methanol (20-250 μg/ml) were dried into wells of microassay plates (Cat.# 3911—Falcon—Oxnard, Calif.). The plates were then blocked with 1% BSA/PBS pH 7.4 (BSA/PBS) for 30 minutes. Wells were incubated with recombinant protein (or with parasite extract) in PBS/BSA for 1 hour, washed 3 times with BSA/PBS, incubated for 1 hour with monoclonal antibodies 2F2 or 2A10 in BSA/PBS, washed 3 times, and then incubated with (10^5 cpm/well) ^125I protein A (Amersham Corp., Arlington Hts., Ill.). In the case of the P. berghei CS protein, wells were incubated with ^125I labelled mAb 3D11. Wells were washed again and the bound radioactive protein was counted in an LKB gamma-counter (model #1260, Pharmacia, Inc., Gaithersburg, Md.). For inhibition assays, the recombinant proteins were mixed with dilutions of the various polymers in BSA/PBS, the mixture was loaded into the wells of the microtiter plates, and the binding assay performed as above. See also, Roberts, et al. J. Biol. Chem. 260:9405-9411, 1985.
1.4 nmol of sulfatide (open squares), cholesterol-3-sulfate (closed triangles), galactocerebroside I (closed circles), galactocerebroside II (open circles) and cholesterol (open triangles) were evaporated into microtiter wells and then incubated with serial dilutions of Vivax-2. […]

liver membranes = assay: Binding activity of aggregated and monomeric FPLC fractions; settings: aggregated form
Procedure: To separate monomers from multimers of recombinant CS, the preparations were subjected to molecular sieving chromatography on an FPLC apparatus (Pharmacia, Piscataway, N.J.). One hundred micrograms of CS27IVC in a phosphate buffer containing 150 mM NaCl (pH 7.2) was injected into a Superose 12 sizing column (Pharmacia). The protein was eluted in the same buffer using a flow rate of 0.2 ml/min. A high molecular weight fraction ([…]) co-eluted with thyroglobulin. The monomeric form of the protein eluted between amylase (molecular weight=200 kDa) and BSA (molecular weight=66kDa).
The methods described by Lambert, J. M. et al., Biochemistry 17:5406-5416, 1978 were followed. Falciparum-1 at a concentration of 1 mg/ml was incubated with 250 mM Traut's reagent (Pierce Chemical Co., Rockford, Ill.) in 50 mM triethylamine-hydrochloric acid (TEA-HCl) (pH 8.0), 1 mM Mg(Ac)2, and 50 mM KCl for 20 min. on ice. Traut's reagent (0.5 M stock) was prepared immediately before use in a solution containing equal volumes of 1 M TEA-HCl and 1 M TEA-free base. The sulfhydryl-containing falciparum-1 was oxidized in ambient air at 4° C. overnight. The presence of aggregated disulfide-linked falciparum-1 was confirmed both by chromatography in an FPLC sizing column and by Western blotting as described above.
The gold conjugates employed in the foregoing liver section experiments contained no aggregates. […]

[2] = Localization in organs after intravenous injection (light and electron microscopy); format: in vivo, mouse; settings: 100 μg i.v., 5 minutes
Procedure: In other experiments, light and electron microscopy were used to localize CS in the various organs. The mice were injected i.v. with 100 μg of unlabeled CS27IVC or Falc-1 via the retroorbital plexus. The mice were exsanguinated five minutes after injection, the organs removed, rinsed in TBS, blotted dry, and then snap frozen in liquid nitrogen for light microscopy. For electron microscopy, the organs were cut into small pieces and fixed in a mixture of 0.1% glutaraldehyde and 4% paraformaldehyde.
Light Microscopy: The frozen tissue was embedded in Tissue Tek O.C.T. (Miles Inc., Naperville, Ill.) and cut into 5 μm sections. Sections were dried for 30 minutes, fixed for 10 minutes in 4% paraformaldehyde, and either used immediately or stored at 4° C. in PBS containing 1% BSA, 0.5% Tween-20. After blocking with the same buffer, the sections were incubated with mAb 2A10 conjugated to FITC, and examined in a fluorescence microscope.
Electron Microscopy: The fixed liver specimens were dehydrated in ethanol and embedded in Lowicryl K4M at −20° C. (Frevert et al., Infect. and Immun. 80:2349 (1992)). After UV polymerization, sections were cut with a RMC MT-7 ultramicrotome and stained by sequential incubation with 15 μg/ml mAb 2A10 and protein A gold 10 nm (PAG10) (1:30, Amersham, Arlington, Ill.). Cerami et al., Cell 70:1021 (1992). Control sections were strained only with the gold conjugate. […]

Row | Molecule | binding to analogues (gangliosides, galactocerebrosides I and II, cholesterol, other steroids) [1] | binding activity (liver membranes) | staining of kidney or other organs with FITC-labeled mAb 2A10 [2] | staining of liver with FITC-labeled mAb 2A10 [2]
1 | B1 | not | – | – | –
2 | B2 | – | inactive | No staining | No staining
